Results published in the Human Domainome abundance scans (Beltran et al. 2025).
± gives the uncertainty stated by the source.

B1: Receptor-interacting serine/threonine-protein kinase 2, residues 438 to 518; numbered along this chain, O43353 (parent)
chain: QWIQSKREDIVNQMTEACLNQSLDALLSRDLIMKEDYELVSTKPTRTSKVRQLLDTTDIQGEEFAKVIVQKLKDNKQMGLQ

Variants of: B1
Experiment: abundance fitness (aPCA) (normalised: wild type 0, dead -1); higher = more abundant; growth selection in yeast, the domain comes from the species named
Details: Homo sapiens

In order of falling abundance fitness:
1. QWIQSKREDIVNQMTEACLNQSLDALLSRDLIMKEDYELVSTKPTRTSKVRQLLDTTDIQKEEFAKVIVQKLKDNKQMGLQ [G61K]  0.024 ± 0.19
2. QWIQSKREDIVNQMTEACLNQSLDALLSRDLIMKEDYELVSTKPTRTSKVRQLLDTTDIYGEEFAKVIVQKLKDNKQMGLQ [Q60Y]  -0.008 ± 0.11
3. QWIQSKREDIVNQMTEACLNQSLDALLSRDLIMKEDYELVSTKPTRTSKVRQLLDTTDIGGEEFAKVIVQKLKDNKQMGLQ [Q60G]  -0.014 ± 0.054
4. QWIQSKREDIVNQMTEACLNQSLDALLSRDLIMKEDYELVSTKPTRTSKVRQLLDTTDIEGEEFAKVIVQKLKDNKQMGLQ [Q60E]  -0.021 ± 0.17
5. QWIQSKREDIVNQMTEACLNQSLDALLSRDLIMKEDYELVSTKPTRTSKVRQLLDTTDIQDEEFAKVIVQKLKDNKQMGLQ [G61D]  -0.022 ± 0.14
6. QWIQSKREDIVNQMTEACLNQSLDALLSRDLIMKEDYELVSTKPTRTSKVRQLLDTTDICGEEFAKVIVQKLKDNKQMGLQ [Q60C]  -0.054 ± 0.065
7. QWIQSKREDIVNQMTEACLNQSLDALLSRDLIMKEDYELVSTKPTRTSKVRQLLDTTDIQNEEFAKVIVQKLKDNKQMGLQ [G61N]  -0.055 ± 0.16
8. QWIQSKREDIVNQMTEACLNQSLDALLSRDLIMKEDYELVSTKPTRTSKVRQLLDTTDIRGEEFAKVIVQKLKDNKQMGLQ [Q60R]  -0.057 ± 0.047
9. QWIQSKREDIVNQMTEACLNQSLDALLSRDLIMKEDYELVSTKPTRTSKVRQLLDTTDIAGEEFAKVIVQKLKDNKQMGLQ [Q60A]  -0.08 ± 0.053
10. QWIQSKREDIVNQMTEACLNQSLDALLSRDLIMKEDYELVSTKPTRTSKVRQLLDTTDIQCEEFAKVIVQKLKDNKQMGLQ [G61C]  -0.083 ± 0.078
11. QWIQSKREDIVNQMTEACLNQSLDALLSRDLIMKEDYELVSTKPTRTSKVRQLLDTTDIQTEEFAKVIVQKLKDNKQMGLQ [G61T]  -0.085 ± 0.13
12. QWIQSKREDIVNQMTEACLNQSLDALLSRDLIMKEDYELVSTKPTRTSKVRQLLDTTDIQEEEFAKVIVQKLKDNKQMGLQ [G61E]  -0.125 ± 0.15
13. QWIQSKREDIVNQMTEACLNQSLDALLSRDLIMKEDYELVSTKPTRTSKVRQLLDTTDIQREEFAKVIVQKLKDNKQMGLQ [G61R]  -0.155 ± 0.054
14. QWIQSKREDIVNQMTEACLNQSLDALLSRDLIMKEDYELVSTKPTRTSKVRQLLDTTDIMGEEFAKVIVQKLKDNKQMGLQ [Q60M]  -0.188 ± 0.1
15. QWIQSKREDIVNQMTEACLNQSLDALLSRDLIMKEDYELVSTKPTRTSKVRQLLDTTDIHGEEFAKVIVQKLKDNKQMGLQ [Q60H]  -0.199 ± 0.089
16. QWIQSKREDIVNQMTEACLNQSLDALLSRDLIMKEDYELVSTKPTRTSKVRQLLDTTDIQQEEFAKVIVQKLKDNKQMGLQ [G61Q]  -0.243 ± 0.094
17. QWIQSKREDIVNQMTEACLNQSLDALLSRDLIMKEDYELVSTKPTRTSKVRQLLDTTDIQVEEFAKVIVQKLKDNKQMGLQ [G61V]  -0.253 ± 0.09
18. QWIQSKREDIVNQMTEACLNQSLDALLSRDLIMKEDYELVSTKPTRTSKVRQLLDTTDIVGEEFAKVIVQKLKDNKQMGLQ [Q60V]  -0.267 ± 0.056
19. QWIQSKREDIVNQMTEACLNQSLDALLSRDLIMKEDYELVSTKPTRTSKVRQLLDTTDIQYEEFAKVIVQKLKDNKQMGLQ [G61Y]  -0.279 ± 0.14
20. QWIQSKREDIVNQMTEACLNQSLDALLSRDLIMKEDYELVSTKPTRTSKVRQLLDTTDIPGEEFAKVIVQKLKDNKQMGLQ [Q60P]  -0.283 ± 0.06
21. QWIQSKREDIVNQMTEACLNQSLDALLSRDLIMKEDYELVSTKPTRTSKVRQLLDTTDIIGEEFAKVIVQKLKDNKQMGLQ [Q60I]  -0.302 ± 0.15
22. QWIQSKREDIVNQMTEACLNQSLDALLSRDLIMKEDYELVSTKPTRTSKVRQLLDTTDILGEEFAKVIVQKLKDNKQMGLQ [Q60L]  -0.321 ± 0.055
23. QWIQSKREDIVNQMTEACLNQSLDALLSRDLIMKEDYELVSTKPTRTSKVRQLLDTTDINGEEFAKVIVQKLKDNKQMGLQ [Q60N]  -0.353 ± 0.1
24. QWIQSKREDIVNQMTEACLNQSLDALLSRDLIMKEDYELVSTKPTRTSKVRQLLDTTDIKGEEFAKVIVQKLKDNKQMGLQ [Q60K]  -0.361 ± 0.14
25. QWIQSKREDIVNQMTEACLNQSLDALLSRDLIMKEDYELVSTKPTRTSKVRQLLDTTDIFGEEFAKVIVQKLKDNKQMGLQ [Q60F]  -0.378 ± 0.16
26. QWIQSKREDIVNQMTEACLNQSLDALLSRDLIMKEDYELVSTKPTRTSKVRQLLDTTDIQAEEFAKVIVQKLKDNKQMGLQ [G61A]  -0.378 ± 0.1
27. QWIQSKREDIVNQMTEACLNQSLDALLSRDLIMKEDYELVSTKPTRTSKVRQLLDTTDITGEEFAKVIVQKLKDNKQMGLQ [Q60T]  -0.412 ± 0.08
28. QWIQSKREDIVNQMTEACLNQSLDALLSRDLIMKEDYELVSTKPTRTSKVRQLLDTTDIQLEEFAKVIVQKLKDNKQMGLQ [G61L]  -0.531 ± 0.089
29. QWIQSKREDIVNQMTEACLNQSLDALLSRDLIMKEDYELVSTKPTRTSKVRQLLDTTDIQGAEFAKVIVQKLKDNKQMGLQ [E62A]  -0.555 ± 0.067
30. QWIQSKREDIVNQMTEACLNQSLDALLSRDLIMKEDYELVSTKPTRTSKVRQLLDTTDIQPEEFAKVIVQKLKDNKQMGLQ [G61P]  -0.596 ± 0.086
31. QWIQSKREDIVNQMTEACLNQSLDALLSRDLIMKEDYELVSTKPTRTSKVRQLLDTTDIQFEEFAKVIVQKLKDNKQMGLQ [G61F]  -0.604 ± 0.29
32. QWIQSKREDIVNQMTEACLNQSLDALLSRDLIMKEDYELVSTKPTRTSKVRQLLDTTDIWGEEFAKVIVQKLKDNKQMGLQ [Q60W]  -0.745 ± 0.12
33. QWIQSKREDIVNQMTEACLNQSLDALLSRDLIMKEDYELVSTKPTRTSKVRQLLDTTDIQIEEFAKVIVQKLKDNKQMGLQ [G61I]  -0.935 ± 0.32
34. QWIQSKREDIVNQMTEACLNQSLDALLSRDLIMKEDYELVSTKPTRTSKVRQLLDTTDIQMEEFAKVIVQKLKDNKQMGLQ [G61M]  -0.947 ± 0.45
